Measurements reported in the RNAGym collection of RNA variant scans (doi:10.7554/elife.80360).

B1: CPEB3 Ribozyme (parent)
chain: GGGGGCCACAGCAGAAGCGUUCACGUCGCGGCCCCUGUCAGAUUCUGGUGAAUCUGCGAAUUCUGCUGU

Variants of: B1
Experiment: self-cleavage, relative activity (ratio to wild type); higher = more cleavage; co-transcriptional

Variant	self-cleavage
U43G A51G	0.901
U43G A51C	0.941
A42G C57U	0.356
A42G U61G	0.359
A42G U53A	0.895
A42G U53G	0.801
U43G C45A	0.886
U43G C45G	0.907
A42G G48C	0.989
A42G G48U	0.948
A42G A60G	0.85
U43G U67A	0.79
U43G U67G	0.867
U43G U67C	0.915
U43A C57A	0.271
U43A C57U	0.41
U43G G65C	0.432
U43G G65U	0.352
A42C C63A	0.547
A42C C63G	0.542
U43G A59C	0.513
U43G A59U	0.566
U43G A59G	0.836
A42C U69C	1.05

Variant	self-cleavage
A42C U69A	1.02
A42C U69G	1.01
U43A A52U	0.926
A42C A52G	0.919
A42C A52U	0.96
A42C A52C	0.803
U43G G68U	0.901
U43G G68A	0.948
A42C G65A	0.627
A42U A52G	0.88
A42U A52U	0.986
A42U A52C	0.945
U43C U67G	1.01
U43C U67C	0.969
U43C U67A	0.98
U43A U46G	0.943
U43A U46C	0.952
U43A U46A	0.958
A42C G56U	0.568
A42C G56C	0.325
G41U U64G	0.441
G41U U64C	0.382
G41U U64A	0.501
U43C A60G	0.798

Variant	self-cleavage
U43C A60C	0.227
U43C A60U	0.415
G41U U67C	0.872
U43G C66U	0.794
U43G C66A	0.319
U43A U55A	0.257
U43C G47C	1.01
U43C G47A	1.02
A42C C45U	0.937
A42C C45G	0.819
A42C C45A	0.851
A42G U67G	0.897
A42G U67C	0.957
A42G U67A	0.86
A42U C54A	0.834
A42U C54G	0.56
U43A U69A	0.974
U43A U69G	1.01
U43A G65C	0.349
U43A G65A	0.49
U43A G65U	0.392
A42U U46C	0.781
A42U G50C	0.809
A42U G50U	0.937

Variant	self-cleavage
U44A A51U	0.998
A42C G68U	1.01
A42C G68A	1
A42C G68C	0.963
U43G G47C	0.936
A42C U64G	0.769
A42C U64A	0.625
A42C U67C	0.97
A42C U67A	0.964
U43C G58A	0.943
U43C G58U	0.975
A42U G48C	0.947
A42U G48A	0.968
A42C A51G	0.852
A42G A52U	0.718
A42G A52C	0.854
A42U C66U	0.876
A42U C66A	0.461
A42G G58A	0.951
A42G G58C	0.894
U43G U69G	0.97
U43C C54G	0.585
U43C C54U	0.905
A42C U55G	0.285

Variant	self-cleavage
A42C U55C	0.328
A42C U55A	0.595
A42C G50C	0.858
A42C G50A	0.952
A42G A51U	0.799
A42G A51C	0.672
U43C A52C	0.968
U43C A52U	1
A42G A59C	0.577
A42G A59U	0.735
A42G A59G	0.81
U43G U61C	0.332
A42C U44G	0.816
A42C U44C	0.736
A42C U44A	0.83
U43G C57A	0.293
A42U C63U	0.876
U43A G56A	0.641
U43A G56C	0.336
U43A G56U	0.427
U43G U46C	0.677
U43G U46G	0.915
U43C C57G	0.308
U43C C57A	0.298

Variant	self-cleavage
U43A U67A	0.919
U43A U67C	0.895
A42U U53A	1.02
A42U U53G	1
U43C G48C	1
U43C G48U	0.998
A42C U49G	0.964
A42C U49A	0.974
U43G U62G	0.468
A42G C66G	0.622
A42G C66U	0.93
A42G C66A	0.558
A42U U64G	0.722
A42U U64A	0.726
U44A	0.983
U43G C54A	0.432
U43G C54G	0.318
A42G U44A	0.822
A42G U44C	0.562
U43C U46A	0.985
U43C U46C	0.939
U43C U46G	0.97
U43C U62A	0.769
U43C U62C	0.86

Variant	self-cleavage
U43G G50A	0.938
U43G G50U	0.952
U44A A59U	0.725
U44A A59G	0.924
U44A A59C	0.638
U43A U61C	0.334
U43C G50A	0.956
A42G G50U	0.887
U44A C66G	0.658
A42U U69A	1
A42U U69C	1.04
U43A	0.953
U43C	0.981
U43G	0.929
U43C U53A	0.92
U43G U55G	0.264
U43G U55A	0.486
A42G G65A	0.639
A42G G65U	0.605
A42G G65C	0.508
A42C C57U	0.376
A42C C57G	0.342
A42C C57A	0.398
